Reference: patent US20240270828A1

Target: SARS-CoV-2 S (SARS-CoV-2) (UniProt P0DTC2)
Assay: SPR Biacore T200, hmAb captured, S injected, 1:1 fit

| Substance | Kd [µM] |
| --- | --- |
| S2P6 (antibody) | 0.032 |
| CV3-25 (antibody) | 0.0132 |
| CC40.8 (antibody) | 0.00669 |
